# According to doi:10.1101/2021.03.12.434960:
# Target: taxol-stabilised microtubules of porcine brain tubulin (pig (porcine brain)) (UniProt P02550)
# Assay: single-molecule TIRF microscopy on surface-bound microtubules
# Chain of full-length human KIF5C, C-terminal mScarlet-StrepII (O60282 whole entry): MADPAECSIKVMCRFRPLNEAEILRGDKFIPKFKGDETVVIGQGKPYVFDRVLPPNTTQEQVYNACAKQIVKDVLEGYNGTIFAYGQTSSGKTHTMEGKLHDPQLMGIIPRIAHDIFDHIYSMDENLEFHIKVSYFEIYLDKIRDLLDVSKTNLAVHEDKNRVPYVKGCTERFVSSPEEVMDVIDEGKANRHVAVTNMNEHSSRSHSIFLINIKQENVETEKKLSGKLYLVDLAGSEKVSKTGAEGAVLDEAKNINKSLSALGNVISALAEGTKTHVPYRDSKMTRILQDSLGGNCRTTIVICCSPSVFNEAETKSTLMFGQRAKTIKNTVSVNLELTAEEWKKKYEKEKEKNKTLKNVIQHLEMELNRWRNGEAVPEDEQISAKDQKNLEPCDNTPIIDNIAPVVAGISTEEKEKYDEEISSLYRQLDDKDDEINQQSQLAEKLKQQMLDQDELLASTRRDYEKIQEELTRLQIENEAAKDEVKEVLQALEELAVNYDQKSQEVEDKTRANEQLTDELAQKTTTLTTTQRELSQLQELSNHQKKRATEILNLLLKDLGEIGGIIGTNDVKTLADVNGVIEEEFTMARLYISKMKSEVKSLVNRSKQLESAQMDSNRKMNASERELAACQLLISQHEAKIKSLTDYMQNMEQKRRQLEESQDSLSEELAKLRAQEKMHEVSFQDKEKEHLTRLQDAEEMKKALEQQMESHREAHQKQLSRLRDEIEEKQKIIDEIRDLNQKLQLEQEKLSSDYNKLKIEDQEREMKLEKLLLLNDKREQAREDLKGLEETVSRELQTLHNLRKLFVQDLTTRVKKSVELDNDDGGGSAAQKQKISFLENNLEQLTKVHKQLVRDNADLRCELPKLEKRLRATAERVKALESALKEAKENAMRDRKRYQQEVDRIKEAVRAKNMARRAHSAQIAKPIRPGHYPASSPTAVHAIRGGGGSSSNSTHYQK
# Chain of K420C (human KIF5C aa 1-416, C-terminal mScarlet-StrepII) (O60282 1-416, stated change not applied): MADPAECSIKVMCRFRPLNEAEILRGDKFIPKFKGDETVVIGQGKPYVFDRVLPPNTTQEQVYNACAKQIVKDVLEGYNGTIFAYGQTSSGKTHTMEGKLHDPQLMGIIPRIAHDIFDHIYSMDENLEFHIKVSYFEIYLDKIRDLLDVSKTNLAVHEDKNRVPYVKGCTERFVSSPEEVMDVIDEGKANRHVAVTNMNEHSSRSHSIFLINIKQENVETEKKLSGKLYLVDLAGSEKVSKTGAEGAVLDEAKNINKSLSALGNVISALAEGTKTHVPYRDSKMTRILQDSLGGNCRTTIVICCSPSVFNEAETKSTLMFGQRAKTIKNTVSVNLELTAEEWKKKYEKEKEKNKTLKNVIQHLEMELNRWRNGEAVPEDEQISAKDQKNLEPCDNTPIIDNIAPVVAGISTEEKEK
# Chain of full-length human KIF5A, C-terminal mScarlet-StrepII (Q12840 whole entry): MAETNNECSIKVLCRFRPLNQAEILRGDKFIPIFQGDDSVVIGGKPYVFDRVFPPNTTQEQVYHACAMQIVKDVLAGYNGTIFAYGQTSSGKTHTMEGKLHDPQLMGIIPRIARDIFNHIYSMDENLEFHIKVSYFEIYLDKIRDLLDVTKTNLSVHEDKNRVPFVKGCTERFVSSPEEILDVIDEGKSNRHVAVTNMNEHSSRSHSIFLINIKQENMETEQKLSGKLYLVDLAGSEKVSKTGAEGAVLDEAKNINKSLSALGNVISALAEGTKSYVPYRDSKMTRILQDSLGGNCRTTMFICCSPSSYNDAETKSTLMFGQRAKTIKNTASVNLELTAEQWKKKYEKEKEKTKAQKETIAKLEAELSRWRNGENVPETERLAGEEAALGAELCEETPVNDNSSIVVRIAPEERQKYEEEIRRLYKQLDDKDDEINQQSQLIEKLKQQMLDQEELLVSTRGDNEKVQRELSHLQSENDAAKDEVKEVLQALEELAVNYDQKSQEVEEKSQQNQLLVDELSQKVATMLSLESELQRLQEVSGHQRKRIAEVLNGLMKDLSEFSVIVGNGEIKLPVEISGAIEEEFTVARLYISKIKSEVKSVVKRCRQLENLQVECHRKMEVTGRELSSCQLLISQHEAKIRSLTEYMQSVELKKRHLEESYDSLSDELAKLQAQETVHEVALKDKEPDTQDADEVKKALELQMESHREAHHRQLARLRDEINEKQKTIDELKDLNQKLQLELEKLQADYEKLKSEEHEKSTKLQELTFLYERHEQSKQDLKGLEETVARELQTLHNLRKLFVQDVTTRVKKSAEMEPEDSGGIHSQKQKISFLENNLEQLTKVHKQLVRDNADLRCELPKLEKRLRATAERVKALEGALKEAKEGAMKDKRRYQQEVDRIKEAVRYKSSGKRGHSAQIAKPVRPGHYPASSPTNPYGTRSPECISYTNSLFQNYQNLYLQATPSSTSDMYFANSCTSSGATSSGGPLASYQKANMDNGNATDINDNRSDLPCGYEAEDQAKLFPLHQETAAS
# Chain of K420A (human KIF5A aa 1-416, C-terminal mScarlet-StrepII) (Q12840 1-416, stated change not applied): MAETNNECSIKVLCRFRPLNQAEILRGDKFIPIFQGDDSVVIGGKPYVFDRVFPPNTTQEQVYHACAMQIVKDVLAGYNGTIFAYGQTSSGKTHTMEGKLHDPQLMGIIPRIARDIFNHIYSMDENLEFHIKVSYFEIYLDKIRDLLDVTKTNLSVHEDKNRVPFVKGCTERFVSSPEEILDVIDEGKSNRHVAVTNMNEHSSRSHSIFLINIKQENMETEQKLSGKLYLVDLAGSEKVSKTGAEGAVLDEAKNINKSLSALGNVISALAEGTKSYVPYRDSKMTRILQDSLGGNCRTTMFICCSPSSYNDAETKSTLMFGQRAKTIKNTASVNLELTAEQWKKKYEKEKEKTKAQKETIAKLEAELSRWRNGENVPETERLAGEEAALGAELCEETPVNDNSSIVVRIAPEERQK
row,landing rate,Substance
1,162 /μm/s/μM,"K420A (human KIF5A aa 1-416, C-terminal mScarlet-StrepII) (from UniProt Q12840 1-416) (domain or fragment)"
2,146 /μm/s/μM,"K420B (human KIF5B aa 1-420, C-terminal mScarlet-StrepII) (from UniProt P33176 1-420) (domain or fragment)"
3,147 /μm/s/μM,"K420C (human KIF5C aa 1-416, C-terminal mScarlet-StrepII) (from UniProt O60282 1-416) (domain or fragment)"
4,0.1 /μm/s/μM,KIF5A-KLC1 tetramer (from UniProt Q12840;Q07866) (complex)
5,8.1 /μm/s/μM,"KIF5B-E178A, C-terminal mScarlet-StrepII (from UniProt P33176 1-963) (natural protein)"
6,4.4 /μm/s/μM,"KIF5B-H129A, C-terminal mScarlet-StrepII (from UniProt P33176 1-963) (natural protein)"
7,4.1 /μm/s/μM,"KIF5B-IAK/AAA, C-terminal mScarlet-StrepII (from UniProt P33176 1-963) (natural protein)"
8,0.06 /μm/s/μM,KIF5B-KLC1 tetramer (from UniProt P33176;Q07866) (complex)
9,3.6 /μm/s/μM,"KIF5B-Δhinge (Δ505-610), C-terminal mScarlet-StrepII (from UniProt P33176 1-963) (natural protein)"
10,0.06 /μm/s/μM,KIF5C-KLC1 tetramer (from UniProt O60282;Q07866) (complex)
11,0.69 /μm/s/μM,"full-length human KIF5A, C-terminal mScarlet-StrepII (from UniProt Q12840 1-1032) (natural protein)"
12,0.08 /μm/s/μM,"full-length human KIF5B, C-terminal mScarlet-StrepII (from UniProt P33176 1-963) (natural protein)"
13,0.1 /μm/s/μM,"full-length human KIF5C, C-terminal mScarlet-StrepII (from UniProt O60282 1-957) (natural protein)"
